Experimental data taken from patent publication US20030103973A1 (published 2003).
Read-outs that look alike come from different tables or passages of the source.

Legend:
[1] = biological target: T1, soluble fusion protein KDR-AP (KDR extracellular domain fused to human placental alkaline phosphatase) (human, UniProt P35968 20-764); assay: competitive ELISA: KDR-AP binding to immobilized VEGF165
T1 construct: extracellular domain; also called immobilized KDR; KDR receptor; not shown: human placental alkaline phosphatase (vector AP-Tag)
T1 sequence (P35968 20-764): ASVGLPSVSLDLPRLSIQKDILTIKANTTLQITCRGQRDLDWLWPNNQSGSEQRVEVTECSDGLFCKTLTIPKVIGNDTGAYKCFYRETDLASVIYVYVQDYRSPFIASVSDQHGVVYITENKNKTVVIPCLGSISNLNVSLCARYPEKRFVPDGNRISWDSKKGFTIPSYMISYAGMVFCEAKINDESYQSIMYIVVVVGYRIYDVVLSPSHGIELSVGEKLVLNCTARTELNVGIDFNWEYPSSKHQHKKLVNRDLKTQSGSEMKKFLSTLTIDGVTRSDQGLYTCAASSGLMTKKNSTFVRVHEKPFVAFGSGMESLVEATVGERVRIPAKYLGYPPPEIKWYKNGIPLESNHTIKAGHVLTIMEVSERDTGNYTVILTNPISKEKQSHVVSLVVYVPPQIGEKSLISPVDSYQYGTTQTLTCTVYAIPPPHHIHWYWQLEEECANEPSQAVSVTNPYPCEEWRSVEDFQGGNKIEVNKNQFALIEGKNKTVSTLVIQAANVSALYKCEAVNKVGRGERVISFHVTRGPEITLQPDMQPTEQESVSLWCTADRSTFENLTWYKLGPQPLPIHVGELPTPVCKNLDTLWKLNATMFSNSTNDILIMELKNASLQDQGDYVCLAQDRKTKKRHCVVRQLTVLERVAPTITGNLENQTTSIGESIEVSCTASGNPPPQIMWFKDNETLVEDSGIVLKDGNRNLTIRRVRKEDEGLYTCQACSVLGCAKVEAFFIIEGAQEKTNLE

[2] = biological target: T1, soluble fusion protein KDR-AP (KDR …); assay: BIAcore, KDR-AP immobilized
Protocol: The binding kinetics of antibodies to KDR were measured using BIAcore biosensor (Pharmacia Biosensor). […] Sensorgrams were obtained at each concentration and were evaluated using a program, BIA Evaluation 2.0, to determine the rate constants kon and koff. Kd was calculated as the ratio of rate constants koff/kon.
*All rates are determined by surface plasmon resonance using BIAcore system, and are mean of at least three separate determinations.

[3] = biological target: chimeric receptor mouse FLK-1/human fms expressed on transfected 3T3 cells (C441) (mouse; human) (UniProt P35918); assay: cell-based or functional assay
chimeric receptor mouse FLK-1/human fms expressed on transfected 3T3 cells (C441) (mouse; human), sequence (P35918 other isoform, or with tags, fused parts or gaps mutant limits assumed): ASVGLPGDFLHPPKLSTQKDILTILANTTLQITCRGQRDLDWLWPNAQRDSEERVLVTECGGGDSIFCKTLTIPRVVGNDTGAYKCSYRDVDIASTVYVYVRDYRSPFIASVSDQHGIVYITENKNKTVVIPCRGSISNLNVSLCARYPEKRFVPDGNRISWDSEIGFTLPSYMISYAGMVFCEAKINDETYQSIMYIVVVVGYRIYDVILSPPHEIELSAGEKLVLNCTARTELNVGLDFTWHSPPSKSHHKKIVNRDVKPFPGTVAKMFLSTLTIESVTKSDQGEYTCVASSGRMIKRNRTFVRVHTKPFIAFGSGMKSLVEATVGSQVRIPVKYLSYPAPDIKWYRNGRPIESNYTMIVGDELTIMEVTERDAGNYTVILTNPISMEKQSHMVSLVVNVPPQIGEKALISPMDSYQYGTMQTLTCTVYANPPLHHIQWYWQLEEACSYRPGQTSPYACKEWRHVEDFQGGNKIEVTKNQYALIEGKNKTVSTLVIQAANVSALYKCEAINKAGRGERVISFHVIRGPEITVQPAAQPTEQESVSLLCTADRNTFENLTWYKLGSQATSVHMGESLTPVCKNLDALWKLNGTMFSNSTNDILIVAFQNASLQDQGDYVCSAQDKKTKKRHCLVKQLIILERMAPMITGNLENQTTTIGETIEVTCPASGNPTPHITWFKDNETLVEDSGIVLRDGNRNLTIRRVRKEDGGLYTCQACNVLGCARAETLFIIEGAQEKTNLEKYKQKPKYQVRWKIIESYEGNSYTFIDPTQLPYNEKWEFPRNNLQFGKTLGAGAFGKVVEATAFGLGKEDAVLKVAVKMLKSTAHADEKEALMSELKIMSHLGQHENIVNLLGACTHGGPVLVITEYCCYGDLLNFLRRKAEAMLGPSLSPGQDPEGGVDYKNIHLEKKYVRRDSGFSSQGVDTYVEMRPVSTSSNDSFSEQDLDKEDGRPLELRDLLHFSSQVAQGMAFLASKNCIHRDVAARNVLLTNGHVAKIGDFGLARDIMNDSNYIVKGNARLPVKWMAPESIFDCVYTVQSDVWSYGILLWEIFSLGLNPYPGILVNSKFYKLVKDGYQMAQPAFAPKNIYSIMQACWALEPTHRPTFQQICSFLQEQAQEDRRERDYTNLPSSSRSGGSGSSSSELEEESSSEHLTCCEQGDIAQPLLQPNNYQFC

[4] = biological target: chimeric receptor mouse FLK-1/human fms expressed on transfected 3T3 cells (C441) (mouse; human) (UniProt P35918); assay: saturation binding to intact C441 cells, colorimetric detection
[5] = biological target: T1, soluble fusion protein KDR-AP (KDR …); assay: direct binding ELISA on KDR-coated plates (printed ED50, 50% of maximum binding)
Protocol: In the direct binding assay, various amounts of soluble scFv were added to KDR-coated 96-well Maxi-sorp microtiter plates and incubated at room temerature for 1 h, after which the plates were washed 3 times with PBST. The plates were then incubated at room temerature for 1 h with 100 μl of mouse anti-E tag antibody followed by incubation with 100 µl of rabbit anti-mouse antibody-HRP conjugate. The plates were washed and developed following the procedure described above for the phage ELISA.

[6] = biological target: T1, soluble fusion protein KDR-AP (KDR …); assay: BIAcore, KDR-AP immobilized; remark: listed apart in the source
Protocol: The binding kinetics of soluble scFv to KDR were measured using BIAcore biosensor (Pharmacia Biosensor). KDR-AP fusion protein was immobilized onto a sensor chip and soluble scFv were injected at concentrations ranging from 62.5 nM to 1000 nM. Sensorgrams were obtained at each concentration and were evaluated using a program, BIA Evaluation 2.0, to determine the rate constant kon and koff. Kd was calculated from the ratio of rate constants koff/kon.

[7] = biological target: T1, soluble fusion protein KDR-AP (KDR …); assay: competitive VEGF blocking ELISA: KDR-AP binding to immobilized VEGF165
[8] = biological target: KDR expressed on HUVEC (human, UniProt P35968 20-1356); assay: cell-based or functional assay
KDR expressed on HUVEC, sequence (P35968 20-1356): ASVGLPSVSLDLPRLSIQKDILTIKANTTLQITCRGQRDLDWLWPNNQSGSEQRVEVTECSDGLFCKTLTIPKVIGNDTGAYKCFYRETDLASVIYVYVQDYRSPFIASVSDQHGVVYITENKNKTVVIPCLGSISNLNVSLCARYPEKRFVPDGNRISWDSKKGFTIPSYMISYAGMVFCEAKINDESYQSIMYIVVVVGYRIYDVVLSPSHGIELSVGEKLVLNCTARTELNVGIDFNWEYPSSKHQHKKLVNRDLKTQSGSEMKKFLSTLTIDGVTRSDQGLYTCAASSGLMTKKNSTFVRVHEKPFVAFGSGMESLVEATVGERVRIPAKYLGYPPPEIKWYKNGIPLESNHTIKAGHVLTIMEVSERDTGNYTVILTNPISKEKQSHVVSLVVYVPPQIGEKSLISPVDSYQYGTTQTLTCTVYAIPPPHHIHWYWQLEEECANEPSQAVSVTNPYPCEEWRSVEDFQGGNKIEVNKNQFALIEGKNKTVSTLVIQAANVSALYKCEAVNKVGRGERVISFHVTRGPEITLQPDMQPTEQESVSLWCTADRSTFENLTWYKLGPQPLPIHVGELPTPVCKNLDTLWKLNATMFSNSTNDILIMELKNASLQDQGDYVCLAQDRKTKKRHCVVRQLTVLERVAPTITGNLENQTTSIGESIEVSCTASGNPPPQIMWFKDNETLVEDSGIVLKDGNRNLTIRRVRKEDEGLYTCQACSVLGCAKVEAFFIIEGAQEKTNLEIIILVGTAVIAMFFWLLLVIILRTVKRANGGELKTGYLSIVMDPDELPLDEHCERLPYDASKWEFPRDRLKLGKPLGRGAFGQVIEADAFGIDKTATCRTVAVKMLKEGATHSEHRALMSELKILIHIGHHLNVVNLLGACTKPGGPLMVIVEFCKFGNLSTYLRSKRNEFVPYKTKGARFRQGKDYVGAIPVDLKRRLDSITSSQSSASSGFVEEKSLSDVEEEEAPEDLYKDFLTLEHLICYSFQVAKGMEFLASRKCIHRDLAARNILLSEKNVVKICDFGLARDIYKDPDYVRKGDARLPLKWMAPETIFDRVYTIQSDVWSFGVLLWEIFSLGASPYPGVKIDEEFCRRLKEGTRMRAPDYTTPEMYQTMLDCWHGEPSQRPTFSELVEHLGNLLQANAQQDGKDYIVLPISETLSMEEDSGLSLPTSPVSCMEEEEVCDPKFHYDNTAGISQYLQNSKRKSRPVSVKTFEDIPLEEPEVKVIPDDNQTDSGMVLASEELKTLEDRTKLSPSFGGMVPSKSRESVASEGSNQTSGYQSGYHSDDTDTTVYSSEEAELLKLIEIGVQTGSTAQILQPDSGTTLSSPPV

| IC50 [1] | Kd [2] | koff [2] | kon [2] | antibody concentration giving a marked decrease in the phosphorylation of FLK-1, competitive conditions [3] | antibody concentration giving a marked decrease in the phosphorylation of FLK-1 by VEGF165 (40 ng/ml) [3] | antibody concentration sufficient to inhibit receptor activation by ligand [3] | level of FLK-1/fms phosphorylation relative to the fully stimulated receptor control, antibody added with VEGF (densitometry) [3] | level of FLK-1/fms phosphorylation relative to the fully stimulated receptor control, antibody prebound (densitometry) [3] | prebound antibody concentration sufficient to completely inhibit receptor activation by ligand [3] | relative apparent affinity [4] | EC50 [5] | Kd [6] | koff [6] | kon [6] | IC50 [7] | EC50, the antibody concentration that inhibited 50% of VEGF-stimulated mitogenesis of HUVEC [8] | Binder |
| --- | --- | --- | --- | --- | --- | --- | --- | --- | --- | --- | --- | --- | --- | --- | --- | --- | --- |
| 0.8 nM | 0.82 nM | 5.2e-05 s⁻¹ | 63000 M⁻¹ s⁻¹ |  |  |  |  |  |  |  |  |  |  |  |  |  | chimeric p1C11 IgG (c-p1C11) (antibody, V domains shown, bivalent IgG made in COS cells; also called chimeric IgG) VH: QVKLQQSGAELVGSGASVKLSCTTSGFNIKDFYMHWVKQRPEQGLEWIGWIDPENGDSDYAPKFQGKATMTADSSSNTAYLQLSSLTSEDTAVYYCNAYYGDYEGYWGQGTTVTVSS VL: DIELTQSPAIMSASPGEKVTITCSASSSVSYMHWFQQKPGTSPKLWIYSTSNLASGVPARFSGSGSGTSYSLTISRMEAEDAATYYCQQRSSYPFTFGSGTKLEIK |
|  |  |  |  | > 0.5 µg/mL | > 0.5 µg/mL | < 1 µg/mL | 40% | 6% | < 1 µg/mL | 500 ng/mL |  |  |  |  |  |  | rat anti-mouse FLK-1 monoclonal antibody DC-101 (antibody, from another filing, rat IgG1, V domains shown) VH: EVQLVETGGGLVQPGNSLKLSCATSGFIFSTTWMNWIRQTPGKRLEWLAQIEDKSNNYFISYSESVKGRFTISRDDSKSSVYLQMNNLKEEDTAIYYCSWKYRSNYYFDYWGQGVMVTVSS VL: DIVLTQSPALAVSLEQRATISCKTSQNVDYYGISYLHWYQQKPGQQPKLLIYEGSNLASGIPARFSGSGSGTDFTLTIDPVEADDIVTYYCQQSKDYPYTFGAGTKLELKR |
| 2 nM | 2.1 nM | 0.000227 s⁻¹ | 111000 M⁻¹ s⁻¹ |  |  |  |  |  |  |  | 0.3 nM | 2.1 nM | 0.00023 s⁻¹ | 110000 M⁻¹ s⁻¹ | 3 nM | ~5 nM | anti-KDR single chain antibody p1C11 (scFv, also called scFv p1C11; p1C11 scFv) scFv: QVKLQQSGAELVGSGASVKLSCTTSGFNIKDFYMHWVKQRPEQGLEWIGWIDPENGDSDYAPKFQGKATMTADSSSNTAYLQLSSLTSEDTAVYYCNAYYGDYEGYWGQGTTVTVSSGGGGSGGGGSGGGGSDIELTQSPAIMSASPGEKVTITCSASSSVSYMHWFQQKPGTSPKLWIYSTSNLASGVPARFSGSGSGTSYSLTISRMEAEDAATYYCQQRSSYPFTFGSGTKLEIK |
